From PMC11410943

Substrate: Cn1c(=O)ccc2ccc(F)c(CCNC[C@H]3CN(c4cnc5c(n4)NC(=O)CO5)C(=O)O3)c21
Assay: OAT3 transport in HEK293 cells
Assay type: in vitro ADME, human
Conditions: other: HEK293; 37.0 °C

B1: OAT3 (Homo sapiens) (protein)
chain: MTFSEILDRVGSMGHFQFLHVAILGLPILNMANHNLLQIFTAATPVHHCRPPHNASTGPWVLPMGPNGKPERCLRFVHPPNASLPNDTQRAMEPCLDGWVYNSTKDSIVTEWDLVCNSNKLKEMAQSIFMAGILIGGLVLGDLSDRFGRRPILTCSYLLLAASGSGAAFSPTFPIYMVFRFLCGFGISGITLSTVILNVEWVPTRMRAIMSTALGYCYTFGQFILPGLAYAIPQWRWLQLTVSIPFFVFFLSSWWTPESIRWLVLSGKSSKALKILRRVAVFNGKKEEGERLSLEELKLNLQKEISLAKAKYTASDLFRIPMLRRMTFCLSLAWFATGFAYYSLAMGVEEFGVNLYILQIIFGGVDVPAKFITILSLSYLGRHTTQAAALLLAGGAILALTFVPLDLQTVRTVLAVFGKGCLSSSFSCLFLYTSELYPTVIRQTGMGVSNLWTRVGSMVSPLVKITGEVQPFIPNIIYGITALLGGSAALFLPETLNQPLPETIEDLENWSLRAKKPKQEPEVEKASQRIPLQPHGPGLGSS
Km: 121 µM
Vmax: 76.1 pmol/mg/min
